Source: patent US20220411495A1, “POSITIVE ALLOSTERIC MODULATORS OF THE CALCIUM-SENSING RECEPTOR” (VIB VZW, priority 2019, published 2022)

B1: Nb4: llama-derived CaSR-specific nanobody acting as PAM, SEQ ID NO:5 (protein)
VHH: QVQLVESGGGLVQAGGSLRLSCAASGRTFSTYRMGWFRQGLGKEREFVAAITANGVRTFYTDSVKGRFTISRDNAKNTLYLQMNSLQPDDTAVYLCAARRKGIFTVQQAQDITDWDYWGQGTQVTVSS
modifications: CaSR Nb4
B2: Nb5: llama-derived CaSR-specific nanobody, weakest PAM, SEQ ID NO:8 (protein)
VHH: QVQLVESGGRLVQDGGSLRLSCAASGLTFSDYSMGWFRQVPGKEREFVAVIRRSNDSTYYADFVKGRFTISRDNAKNTVYLQMNSLQPEDTAVYSCAADRGGVGLTSAQTYAYWGQGTQVTVSS
modifications: CaSR Nb5

What was measured:
[1] = target: T1, extracellular Venus flytrap domain of CaSR (Homo sapiens, UniProt P41180); experiment: Surface plasmon resonance on isolated purified Venus flytrap domain; format: binding
T1 sequence (P41180 20-610 limits assumed): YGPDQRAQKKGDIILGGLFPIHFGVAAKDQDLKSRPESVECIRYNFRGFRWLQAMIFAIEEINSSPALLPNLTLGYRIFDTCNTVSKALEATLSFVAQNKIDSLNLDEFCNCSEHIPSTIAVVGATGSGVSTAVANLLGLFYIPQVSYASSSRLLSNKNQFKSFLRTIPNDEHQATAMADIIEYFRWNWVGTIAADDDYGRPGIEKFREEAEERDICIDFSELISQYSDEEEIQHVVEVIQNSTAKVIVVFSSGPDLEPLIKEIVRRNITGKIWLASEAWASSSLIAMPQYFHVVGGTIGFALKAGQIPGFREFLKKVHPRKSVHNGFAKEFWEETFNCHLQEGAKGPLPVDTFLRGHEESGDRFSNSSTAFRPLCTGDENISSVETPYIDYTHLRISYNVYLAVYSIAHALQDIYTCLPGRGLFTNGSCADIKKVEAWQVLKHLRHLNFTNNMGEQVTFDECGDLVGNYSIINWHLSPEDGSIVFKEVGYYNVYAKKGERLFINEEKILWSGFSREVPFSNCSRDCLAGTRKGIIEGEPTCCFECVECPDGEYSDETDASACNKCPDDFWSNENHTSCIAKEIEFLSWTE

[2] = target: T2, human CaSR wild type (hCaSR WT) (Homo sapiens, UniProt P41180, E1011Q); experiment: Advanced phospho-ERK1/2 assay, HEK293 HA-hCaSR WT cells; format: cell-based; conditions: 5 μM nanobody, EC20 Ca2+
T2 construct: mGlu5 signal peptide (N, cleaved yes); expressed in transfected cells
T2 sequence (P41180 20-1078 E1011Q): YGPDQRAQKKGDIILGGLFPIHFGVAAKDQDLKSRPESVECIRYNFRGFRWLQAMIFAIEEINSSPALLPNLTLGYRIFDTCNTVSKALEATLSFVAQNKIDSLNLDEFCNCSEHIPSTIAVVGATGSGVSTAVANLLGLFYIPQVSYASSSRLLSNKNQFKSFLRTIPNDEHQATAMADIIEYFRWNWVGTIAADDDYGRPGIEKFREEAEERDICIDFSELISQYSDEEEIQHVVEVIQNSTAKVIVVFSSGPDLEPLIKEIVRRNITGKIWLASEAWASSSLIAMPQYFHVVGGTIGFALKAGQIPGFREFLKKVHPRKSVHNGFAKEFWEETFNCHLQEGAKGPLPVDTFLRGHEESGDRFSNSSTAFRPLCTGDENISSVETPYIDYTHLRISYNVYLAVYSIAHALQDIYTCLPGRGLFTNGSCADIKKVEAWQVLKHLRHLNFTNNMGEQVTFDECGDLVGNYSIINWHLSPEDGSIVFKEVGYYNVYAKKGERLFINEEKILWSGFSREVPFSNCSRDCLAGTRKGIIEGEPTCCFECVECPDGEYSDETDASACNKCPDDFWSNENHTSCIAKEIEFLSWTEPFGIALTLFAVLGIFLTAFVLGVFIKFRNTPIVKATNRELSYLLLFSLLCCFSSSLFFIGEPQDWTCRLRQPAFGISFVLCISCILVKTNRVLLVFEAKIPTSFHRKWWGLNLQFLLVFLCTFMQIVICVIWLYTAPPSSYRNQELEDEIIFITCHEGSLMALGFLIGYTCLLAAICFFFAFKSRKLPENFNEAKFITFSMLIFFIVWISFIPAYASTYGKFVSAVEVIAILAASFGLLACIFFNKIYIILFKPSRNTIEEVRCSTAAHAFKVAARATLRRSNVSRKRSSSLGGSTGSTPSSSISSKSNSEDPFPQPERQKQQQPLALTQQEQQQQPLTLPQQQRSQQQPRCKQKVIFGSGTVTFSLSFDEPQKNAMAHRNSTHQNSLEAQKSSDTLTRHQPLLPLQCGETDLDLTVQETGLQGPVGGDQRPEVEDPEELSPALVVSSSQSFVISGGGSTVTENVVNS
Protocol: Nanobodies were successfully purified by immobilized metal ion affinity chromatography (IMAC) and size exclusion chromatography (SEC) prior to pharmacological characterization (FIG. 1). Each nanobody was initially screened for Gq/11 activity in the Cisbio IP1 accumulation assay as this is the primary signaling pathway of CaSR (Chavez-Abiega et al., 2020). Whole HEK293 HA-hCaSR WT cells were pre-incubated for 30 minutes at 37° C. with a fixed nanobody concentration (5 μM) prior to stimulation with the endogenous ligand Ca^2+. The well characterized positive allosteric modulator (PAM) chemical NPS R-568 and negative allosteric modulator (NAM) chemical NPS 2143 were added as reference compounds. […] No nanobodies with agonist or NAM activity were observed when all nanobodies screened in the absence or in the presence of EC80 Ca^2+, respectively (FIGS. 4A and 4B). […] Except for CaSR Nb5, the same nanobodies acted as PAMs when ERK1/2 phosphorylation was measured in the presence of EC20 Ca^2+ (FIG. 2B). Again, none of the nanobodies elicited an agonist or NAM response (FIGS. 5B and 5C).
Phosphorylation of ERK1/2 at T202 and Y204 was measured with the HTRF® Advanced Phospho-ERK1/2 assay (Cisbio Bioassays, Codolet, France). […] Upon excitation at 340 nm, emission at 615 and 665 nm was measured on an EnVision multimode plate reader (PerkinElmer, Waltham, Mass., USA). […]

Molecule	Binding to isolated Venus flytrap domain (SPR) [1]	Dependence of binding affinity on endogenous ligands (SPR) ([1]; Ca2+ and/or L-Trp)	PAM activity in phospho-ERK1/2 assay [2]
B1	binds	synergistically increases upon the presence of both ligands	
B2			could not be confirmed
